Test results as given in paper PMC10801580 (2024).

B1: murine 9-8F2-B11 (antibody, V domains shown)
VH: EVQLQQSGAELVKPGASVKLSCTASGFNIKETYVHWVKQRPEQGLEWIGRIDHAIGDSEYDPKFQGKATVTADTSSNTAYLQLSRLTSEDTAVYYCARTWGPFFDFWGQGTTVTVSS
VL: DVVMTQTPLSLPVSLGDQASISCRSSQSLVHSHGNTFLHWYLQKPGQSPKVLIYKVSSRFSGVPDRFSGSGAGTDFTLKISRVEAEDLGVYFCSQSTHVPYTFGGGTKLEIK
B2: humanized 9-8F2-B11, VH3VL3 combination (antibody, V domains shown)
VH: QVQLVQSGAEVKKPGASVKVSCKASGFNIKETYVHWVRQAPGQGLEWMGRIDPAIGDSEYAQKFQGRVTMTRDTSISTAYMELSRLRSDDTAVYYCARTWGPFFDFWGQGTLVTVSS
VL: DIVMTQTPLSLSVTPGQPASISCKSSQSLLHSHGNTFLHWYLQKPGQSPQVLIYKVSSRFSGVPDRFSGSGSGTDFTLKISRVEAEDVGVYYCSQSTHVPYTFGQGTKLEIK

Experiments:
[1] = target: T1, WT RBD-6xHis (receptor-binding domain of the SARS-CoV-2 spike protein) (SARS-CoV-2, UniProt P0DTC2); assay: BLI
[2] = target: T1, WT RBD-6xHis (receptor-binding domain …); assay: ELISA

Row | Binder | Kd [1] [nM] | EC50 [2] [ng/mL]
1 | B1 | 0.913 | 0.0137
2 | B2 | 2.26 | 
